The record followed here is patent US20160130302A1.

For series [1], the target named is rat δPKC (endogenous, in perfused rat hearts) (rat) (UniProt P09215). Description: cell-based or functional assay.
Series [2] concerns T1, ψPDK peptide (ALSTER), non-TAT conjugated.
T1 sequence: ALSTER

Series [3] has as its system ψPDK-Cs-sC-TAT (ψPDK linked to TAT47-57 by a disulfide bond).
In series [4] the target is rat δPKC (endogenous, in perfused rat hearts) (rat), P09215. Description: cell-based or functional assay.

Positions of bridges follow the written chain, without caps; N, C: chain ends. Chains are numbered I, II in the order given. No end group written: not given here.

Sequence of rat δPKC (endogenous, in perfused rat hearts) (rat) (P09215 whole entry, stated change not applied, the tested form may be a part): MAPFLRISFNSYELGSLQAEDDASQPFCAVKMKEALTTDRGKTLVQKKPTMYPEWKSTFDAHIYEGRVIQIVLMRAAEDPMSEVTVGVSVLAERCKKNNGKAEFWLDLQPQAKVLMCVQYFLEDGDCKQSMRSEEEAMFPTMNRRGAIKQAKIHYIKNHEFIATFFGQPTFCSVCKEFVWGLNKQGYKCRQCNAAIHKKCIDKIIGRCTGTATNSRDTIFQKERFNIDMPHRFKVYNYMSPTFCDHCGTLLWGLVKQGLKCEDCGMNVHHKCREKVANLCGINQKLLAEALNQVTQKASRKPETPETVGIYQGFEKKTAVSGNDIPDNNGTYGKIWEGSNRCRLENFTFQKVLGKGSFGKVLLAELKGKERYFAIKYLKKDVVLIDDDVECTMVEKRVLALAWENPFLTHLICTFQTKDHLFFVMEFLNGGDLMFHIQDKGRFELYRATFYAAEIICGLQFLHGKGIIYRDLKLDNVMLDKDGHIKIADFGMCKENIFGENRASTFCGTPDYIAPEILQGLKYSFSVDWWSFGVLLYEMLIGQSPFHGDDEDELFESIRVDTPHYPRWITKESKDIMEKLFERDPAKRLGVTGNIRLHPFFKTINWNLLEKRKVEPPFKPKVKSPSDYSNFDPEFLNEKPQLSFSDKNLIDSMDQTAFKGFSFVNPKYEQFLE
Sequence of rat δPKC (endogenous, in perfused rat hearts) (rat), P09215 (P09215 whole entry, stated change not applied, the tested form may be a part): as above

In series [1], “p198 (ALS(p)TER), TAT-conjugated (peptide)” displayed a CPK (u/L) of 1170 u/L and a p-JNK/total JNK of 0.9.
As to human recombinant δPKC (Invitrogen), in series [2], the “in vitro phosphorylation of Drp1 by δPKC” value is recorded as “ψPDK did not affect Drp1 phosphorylation” and the “δPKC phosphorylation of PDK (in vitro kinase assay)” value is listed as “ψPDK inhibited δPKC phosphorylation of PDK by ˜30%”.
In series [1], p195 (ALSTAR), TAT-conjugated (peptide) yielded a CPK (u/L) of 913 u/L and a p-JNK/total JNK of 0.7.
The matching figures for “p197 (ALST(p)ER), TAT-conjugated (peptide)”: 803 u/L and 0.7.
Take “mouse δPKC (endogenous, in fibroblasts from wild-type mice)”: in series [3], the “MARCKS phosphorylation in wild-type fibroblasts” value is reported as “increased MARCKS phosphorylation relative to the control peptide”.
In series [1], “p199 (ALS(p)T(p)ER), TAT-conjugated (peptide)” showed a CPK (u/L) of 842 u/L and a p-JNK/total JNK of 0.6.
The matching figures for p192 (AASTER), TAT-conjugated (peptide): 1270 u/L and 0.7.
The matching figures for p194 (ALSAER), TAT-conjugated (peptide): 886 u/L and 0.6.
The matching figures for p196 (ALSTEA), TAT-conjugated (peptide): 926 u/L and 0.9.
Turning to p193 (ALATER), TAT-conjugated (peptide), in series [1], the CPK (u/L) stood at 1160 u/L and the p-JNK/total JNK amounted to 0.7.
With “rat δPKC (endogenous, in perfused rat hearts)”, in series [3], the “I/R-induced MARCKS phosphorylation in hearts” value is “an increase in I/R-induced MARCKS phosphorylation was observed in the presence of ψPDK, as compared with control peptide”; the “phosphorylation of PDK2 and of the E1 subunit of PDH after I/R (2-D IEF)” value was “the phosphorylation of those two enzymes (shown by a shift to acidic pH by 2-D IEF analysis) did not occur in the presence of either ψPDK or in the presence of δV1-1”.

B1: ψPDK-Cs-sC-TAT (ψPDK linked to TAT47-57 by a disulfide bond) (peptide)
peptide: ALSTERC-NH2
chain: YGRKKRRQRRRC-NH2
modifications: disulfide I:7-II:12; N-terminus assumed
SMILES: CC(C)C[C@H](NC(=O)[C@H](C)N)C(=O)N[C@@H](CO)C(=O)N[C@H](C(=O)N[C@@H](CCC(=O)O)C(=O)N[C@@H](CCCNC(=N)N)C(=O)N[C@@H](CSSC[C@H](NC(=O)[C@H](CCCNC(=N)N)NC(=O)[C@H](CCCNC(=N)N)NC(=O)[C@H](CCCNC(=N)N)NC(=O)[C@H](CCC(N)=O)NC(=O)[C@H](CCCNC(=N)N)NC(=O)[C@H](CCCNC(=N)N)NC(=O)[C@H](CCCCN)NC(=O)[C@H](CCCCN)NC(=O)[C@H](CCCNC(=N)N)NC(=O)CNC(=O)[C@@H](N)Cc1ccc(O)cc1)C(N)=O)C(N)=O)[C@@H](C)O
In series [4], B1 returned a CPK (u/L) of 335 u/L, a p-JNK/total JNK of 0.4 and a δPKC association with the mitochondria after I/R of 2 fold.
